2 molecules from patent publication US20210107969A1 (Johns Hopkins, published 2021) can be followed below.

The target of one test is T1, biotinylated huPD-L1 (human, UniProt Q9NZQ7 19-238, limits assumed, biotinylated (site not stated)).
T1 construct: it is treated here as the same reagent; also called biotinylated PD-L1
Nature of the test: ELISA, antibody coated, biotinylated huPD-L1 detected by avidin-HRP. (ELISA stands for enzyme-linked immunosorbent assay.)

In a further test the target is T2, human TGF-β1 (human, UniProt P01137 279-390, biotinylated in the FIG. 8C ELISA; unlabelled rhTGF-β1 in FIG. 9B/9C).
T2 construct: also called biotinylated huTGFb1; rhTGF-β1
Put plainly: ELISA, protein coated, biotinylated huTGFb1 detected by avidin-HRP.

T1 sequence (Q9NZQ7 19-238 limits assumed): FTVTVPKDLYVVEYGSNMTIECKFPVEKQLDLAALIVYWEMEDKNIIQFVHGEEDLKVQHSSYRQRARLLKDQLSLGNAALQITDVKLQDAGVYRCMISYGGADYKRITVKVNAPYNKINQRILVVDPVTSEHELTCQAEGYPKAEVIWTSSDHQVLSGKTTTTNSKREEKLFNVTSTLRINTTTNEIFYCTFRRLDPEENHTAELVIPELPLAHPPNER
T2 sequence (P01137 279-390 limits assumed): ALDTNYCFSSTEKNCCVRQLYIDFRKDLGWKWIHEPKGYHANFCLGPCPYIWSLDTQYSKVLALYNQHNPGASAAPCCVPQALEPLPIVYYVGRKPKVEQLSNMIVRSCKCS

B1: anti-PD1 (nivolumab) (antibody, human IgG4 S228P, kappa, V domains shown)
VH: QVQLVESGGGVVQPGRSLRLDCKASGITFSNSGMHWVRQAPGKGLEWVAVIWYDGSKRYYADSVKGRFTISRDNSKNTLFLQMNSLRAEDTAVYYCATNDDYWGQGTLVTVSS
VL: EIVLTQSPATLSLSPGERATLSCRASQSVSSYLAWYQQKPGQAPRLLIYDASNRATGIPARFSGSGSGTDFTLTISSLEPEDFAVYYCQQSSNWPRTFGQGTKVEIKR
notes: Negative control in the PD-L1 ELISA
For B1, the binding result in the test with biotinylated huPD-L1 is “no binding”.

B2: anti-VEGF (bevacizumab) (antibody, human IgG1, kappa, V domains shown)
VH: EVQLVESGGGLVQPGGSLRLSCAASGYTFTNYGMNWVRQAPGKGLEWVGWINTYTGEPTYAADFKRRFTFSLDTSKSTAYLQMNSLRAEDTAVYYCAKYPHYYGSSHWYFDVWGQGTLVTVSS
VL: DIQMTQSPSSLSASVGDRVTITCSASQDISNYLNWYQQKPGKAPKVLIYFTSSLHSGVPSRFSGSGSGTDFTLTISSLQPEDFATYYCQQYSTVPWTFGQGTKVEIKR
As for B2, the binding result with human TGF-β1 is recorded as “no binding”.
